The record followed here is patent US20240042051A1 (Novartis, published 2024).

Test [1] has as its target T1, Human CD48 (recombinant, humanCD48 aa29-220) (human, UniProt P09326 29-220).
T1 construct: SPR analyte in solution; also called analyte human CD48; not shown: C-terminal tag (hFc1P, APP6-Avi or His)
T1 sequence: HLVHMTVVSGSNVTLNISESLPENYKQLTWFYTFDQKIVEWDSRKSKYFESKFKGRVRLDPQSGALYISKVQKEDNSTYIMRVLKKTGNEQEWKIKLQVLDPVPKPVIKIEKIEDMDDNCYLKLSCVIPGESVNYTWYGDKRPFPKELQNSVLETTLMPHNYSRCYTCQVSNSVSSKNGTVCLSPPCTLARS
Nature of the test: SPR Biacore T200, antibody captured on protein A chip, CD48 as analyte, 25 °C, 1:1 model. How it is done: The anti-CD48 antibodies were diluted at 5 μg/ml and injected on flow cells 2 and 4 for 20 sec at 10 μl/min. Capture level for all antibodies was 370-440 RU. Flow cells 1 and 3 were left blank (no antibody captured) and used as a reference surface. Human and cynomolgus CD48 served as analytes in solution. […] After each cycle of antibody capture and analyte injection, the chip surface was regenerated with 10 mM Glycine-HCl pH 1.5 (Cytiva, ordering #BR100354) for 2×30 s at a flow rate of 50 μl/min. Three runs with duplicate measurements and buffer blank injections were performed. Measurements were executed at 25° C. and data collected at a rate of 10 Hz.
[…] The raw data were double referenced, i.e. the response of the measuring flow cells was corrected for the response of the reference flow cells (no antibody captured), and in a second step the response of a blank injection (buffer) was subtracted. Finally, the sensorgrams were fitted by applying a 1:1 interaction model with a constant fit of RI (0) and a global fit for Rₘₐₓ. Kinetic rate constants (kₐ, kd) and equilibrium dissociation constants (KD) were calculated. Data were processed separately for each run. The generated values were used to calculate average values and standard deviations of the respective equilibrium dissociation constants and the kinetic rate constants.
On the technique in general: Surface plasmon resonance follows binding to a sensor surface in real time, without labels.

For test [2], the target named is T2, hCD48EC:mouse-Ig construct #2248 (ENYKQ modified into GSSKQ) (human, UniProt P09326 27-220, limits assumed).
T2 construct: extracellular domain; not shown: mouse IgG1 part of the fusion
T2 sequence (looked up): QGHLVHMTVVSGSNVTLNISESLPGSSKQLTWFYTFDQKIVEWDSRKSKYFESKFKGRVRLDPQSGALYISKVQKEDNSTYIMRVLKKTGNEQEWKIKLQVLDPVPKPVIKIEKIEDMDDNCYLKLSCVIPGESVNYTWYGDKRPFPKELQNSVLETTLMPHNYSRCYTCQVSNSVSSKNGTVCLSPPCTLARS
Nature of the test: ELISA, HEK293T culture supernatant (1:10) with the CD48-mouse Ig construct, antibody at 25, 250 and 500 ng/mL, detection goat anti-mouse IgG (H+L) HRP, Mean OD450-570. An excerpt:
Non-mutated CD48-mouse IgG fusion peptide served as positive control and non-transfected cell supernatant as negative control.
In general terms: An ELISA detects its analyte on a solid surface through an enzyme-linked reagent.

B1: NY938 (antibody, human IgG1, kappa, V domains shown)
VH: QVQLVQSGAEVKKPGASVKVSCKASGYTFTEYTMHWVRQAPGQGLEWMGGINPDTGDTSYNQKFTGRATLTVDKSTSTAYMELSSLRSEDTAVYYCARAQFWTTPRFAYWGQGTLVTVSS
VL: DIQMTQSPSSLSASVGDRVTITCKASQDVGTAVAWYQQKPGKVPKLLIYWASTRHTGVPSRFSGSGSGTDFTLTISSLQPEDVATYYCQQYSTYPITFGQGTKLEIKR
notes: also called anti-CD48 antibody NY938; NY938 IgG
In general, Kd refers to the free concentration of one partner at which half of the binding sites on the other are occupied at equilibrium, for simple one-to-one binding. Broadly, the koff is the rate constant with which the complex falls apart. A word on the kon: it is the rate constant with which the complex forms. Regarding B1, in test [1], the dissociation constant (Kd) is 0.5 nM, the koff turned out to be 0.00013 s⁻¹ and the kon is 250000 M⁻¹ s⁻¹.

B2: NY920 (antibody, human IgG1, kappa, V domains shown)
VH: EVQLLESGGGLVQPGGSLRLSCAASGFTFSSFAMSWVRQAPGKGLEWVSAISGFGGSTYYADSVKGRFTISRDNSKNTLYLQMNSLRAEDTAVYYCARQFWEDQPFYFDYWGQGTLVTVSS
VL: not shown
notes: also called anti-CD48 antibody NY920; candidate antibody NY920
Consider B2, for which, in test [1], the equilibrium dissociation constant (Kd) came out at 10 nM, the koff is 0.00074 s⁻¹ and the kon came to 72000 M⁻¹ s⁻¹.

B3: humanized CD48A (antibody, V domains shown)
VH: QVQLVQSGSELKKPGASVKVSCKASGYTFTDFGMNWVRQAPGQGLEWMGWINTFTGEPSYGNVFKGRFVFSLDTSVSTAYLQISSLKAEDTAVYYCARRHGNGNVFDSWGQGTLVTVSS
VL: EIVLTQSPDFQSVTPKEKVTITCRASQSIGSNIHWYQQKPDQSPKLLIKYTSESISGVPSRFSGSGSGTDFTLTINSLEAEDAATYYCQQSNSWPLTFGGGTKVEIKR
notes: Murine CD48A is clone MEM-102; also called control antibody CD48A
Take B3: in test [2], the binding result is “no binding (tested: 500 ng/mL)”.
